Read-outs that look alike come from different tables or passages of the source.
Tests used:
[1] = target: PD-L1 on CHO-K1-0S8-PD-L1-8D6 cells; assay: cell-based or functional assay
[2] = target: Human PD-L1 (SPR analyte, Example 7) (human, UniProt Q9NZQ7 19-238, limits assumed); assay: SPR (Biacore 8K), antibody captured by anti-human chip, antigen analyte, 1:1 model
Description: (§1) The Anti-Human Capture-CMS chip (GE, #BR-1005-30) was prepared according to the method for conjugating the Human Antibody Capture Kit (GE, #BR-1008-39) to the Amino Conjugation Kit (GE, BR-1000-50).

[3] = target: T1, Human TIGIT (SPR analyte, Example 7) (human, UniProt Q495A1 22-141, limits assumed); assay: as above
T1 sequence (looked up): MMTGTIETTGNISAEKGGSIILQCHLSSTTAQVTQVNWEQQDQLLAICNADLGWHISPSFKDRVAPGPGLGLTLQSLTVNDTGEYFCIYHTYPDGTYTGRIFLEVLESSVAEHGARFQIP
Description: as §1

[4] = target: T2, human TIGIT on CHOK1-huTIGIT-2A3 cells (human, UniProt Q495A1 22-244); assay: flow cytometry competition with huCD155-moFc on CHOK1-huTIGIT-2A3 cells
T2 construct: whole, on cells; also called cells expressing the human TIGIT
T2 sequence (looked up): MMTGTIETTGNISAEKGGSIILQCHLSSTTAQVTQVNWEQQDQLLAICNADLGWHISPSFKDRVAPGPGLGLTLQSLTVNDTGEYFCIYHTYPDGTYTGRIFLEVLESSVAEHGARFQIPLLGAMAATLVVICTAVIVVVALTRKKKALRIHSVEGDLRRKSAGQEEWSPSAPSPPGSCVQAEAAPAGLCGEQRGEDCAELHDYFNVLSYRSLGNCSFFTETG
Description: After reaction, the 96-well U-shaped plate was resuspended with 1% BSA/PBS, centrifuged (300 g×3 min) to discard the supernatant, and washed once in such way; and Alexa488-goat anti-mouse-Fc (Jackson ImmunoResearch, #115-545-071) diluted at 1:300 was added to react for 15 min in the dark at room temperature. After reaction, the 96-well U-shaped plate was resuspended with 1% BSA/PBS, centrifuged (300 g×3 min) to discard the supernatant, washed three times in such a way, and finally resuspended with 100 μL of 1% BSA/PBS for each wall; and the fluorescence intensity of an FITC channel was detected with a flow cytometer (BD, #CantoII).

[5] = target: T2, human TIGIT on CHOK1-huTIGIT-2A3 cells; assay: flow cytometry on CHOK1-huTIGIT-2A3 cells
Description: All chimeric antibodies and humanized antibodies were diluted to 20 μg/ml with 1% BSA in PBS solution (1% BSA/PBS), were added to a 96-well U-shaped plate at 20 μL per well; and a negative control (with 1% BSA/PBS added only) was set up at the same time. The suspension of cells (CHOK1-huTIGIT-2A3, Huabo Biopharm) expressing human TIGIT during the logarithmic growth phase were centrifuged (1000 rpm×5 min) to discard the culture medium; and the cells were resuspended with 1% BSA/PBS until the density of viable cells was 1×10⁶/mL, and were added, at 20 μL (2×10⁴ cells) per well, to the 96-well U-shaped plate with the anti-TIGIT antibody to react for 30 min at room temperature. After reaction, the 96-well U-shaped plate was resuspended with 1% BSA/PBS, centrifuged (300 g×3 min) to discard the supernatant, and washed once in such a way; and PE-goat anti-human-Fc (Jackson ImmunoResearch, #109-115-098) diluted at 1:200 was added to react for 15 min in the dark at room temperature. After reaction, the 96-well U-shaped plate was resuspended with 1% BSA/PBS, centrifuged (300 g×3 min) to discard the supernatant, washed three times in such a way, and finally resuspended with 100 μL of 1% BSA/PBS for each wall; and the fluorescence intensity of a PE channel was detected with a flow cytometer (BD, #CantoII).

[6] = target: TIGIT on Jurkat-TIGIT-22G8 cells; assay: cell-based or functional assay
[7] = target: T3, histidine-tagged (His-Tag) human TIGIT protein (huTIGIT, ACRO Biosystems, #TIT-H52H3) (human, UniProt Q495A1 22-141); assay: SPR (Biacore 8K), antibody captured on Protein A chip, huTIGIT-His analyte, 1:1 model
T3 construct: Bought reagent; not shown: His tag
T3 sequence (looked up): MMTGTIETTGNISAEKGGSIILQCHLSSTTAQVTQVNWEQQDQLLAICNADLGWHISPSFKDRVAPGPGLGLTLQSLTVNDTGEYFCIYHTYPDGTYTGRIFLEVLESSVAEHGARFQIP
Description: This test determined the antigen-antibody binding kinetics and affinity by using an SPR method. BIOCORE (GE, #Biacore 8K) was used. […] An antibody sample was diluted using an equilibration buffer to an experimental working concentration, and sealed at 2-8° C. for later use. The antigen, namely, the histidine-tagged (His-Tag) human TIGIT protein (huTIGIT, ACRO Biosystems, #TIT-H52H3), was diluted with an equilibration buffer HBS-EP (10×) (GE, #BR-1006-69). Starting at 20 nM, the antigen was diluted by 2.5-fold for 5 concentration gradients, and 2 replications were set up for zero concentration (i.e., the equilibration buffer) and the lowest concentration. The chip was regenerated with pH1.5 glycine solution (GE, #BR100354).

[8] = target: T1, Human TIGIT (SPR analyte, Example 7); assay: SPR (Biacore 8K), antibody captured by anti-human chip, antigen analyte, 1:1 model; remark: listed apart in the source
Description: as §1

[9] = target: T4, human TIGIT (hybridoma screening, Table 1) (human, UniProt Q495A1 22-141, limits assumed); assay: Biacore (SPR), hybridoma screening
T4 sequence (looked up): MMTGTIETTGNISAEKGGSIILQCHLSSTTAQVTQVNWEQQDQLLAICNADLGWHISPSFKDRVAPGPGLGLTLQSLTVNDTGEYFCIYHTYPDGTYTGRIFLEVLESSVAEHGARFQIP

Sequence of PD-L1 on CHO-K1-0S8-PD-L1-8D6 cells (Q9NZQ7 whole entry): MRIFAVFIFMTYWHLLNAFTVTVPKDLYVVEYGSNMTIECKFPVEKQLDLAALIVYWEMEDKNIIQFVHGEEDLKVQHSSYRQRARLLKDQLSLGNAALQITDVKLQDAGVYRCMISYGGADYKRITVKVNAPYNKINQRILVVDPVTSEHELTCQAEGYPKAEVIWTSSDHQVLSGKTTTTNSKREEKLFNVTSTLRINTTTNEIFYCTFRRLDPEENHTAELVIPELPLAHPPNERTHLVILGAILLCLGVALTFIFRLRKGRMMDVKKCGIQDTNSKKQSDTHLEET
Sequence of Human PD-L1 (SPR analyte, Example 7) (Q9NZQ7 19-238 limits assumed): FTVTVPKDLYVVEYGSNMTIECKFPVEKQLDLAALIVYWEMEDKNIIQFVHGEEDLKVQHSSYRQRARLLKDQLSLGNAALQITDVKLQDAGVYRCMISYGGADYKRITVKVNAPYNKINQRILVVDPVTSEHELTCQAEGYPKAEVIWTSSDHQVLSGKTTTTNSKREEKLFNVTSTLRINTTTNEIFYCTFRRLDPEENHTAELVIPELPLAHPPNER

| Binder | Kd [3] [nM] | koff [3] [s⁻¹] | kon [3] [M⁻¹ s⁻¹] | IC50 [4] [µg/mL] | EC50 [5] [µg/mL] | also measured |
| --- | --- | --- | --- | --- | --- | --- |
| 900691 (bispecific antibody, human IgG1, kappa, also called PD-L1-IgG-TIGIT-scFv) heavy: not shown light: DVVMTQTPLSLSVTPGQPASISCKSSQSLANSYGNTYLSWYLHKPGQSPQLLIYGISNRFSGVPDRFSGSGSGTDFTLKISRVEAEDVGVYYCLQGTHQPPTFGQGTKLEIKRTVAAPSVFIFPPSDEQLKSGTASVVCLLNNFYPREAKVQWKVDNALQSGNSQESVTEQDSKDSTYSLSSTLTLSKADYEKHKVYACEVTHQGLSSPVTKSFNRGEC | 0.0925 | 9.13e-05 | 987000 | – | – | EC50 (nM), luciferase reporter, Jurkat-NFAT-PD-1-5B8 cells with CHO-K1-0S8-PD-L1-8D6 cells [1]: 1.84 nM; Kd [2]: 2.24 nM; koff [2]: 0.000481 s⁻¹; kon [2]: 214000 M⁻¹ s⁻¹ |
| 900692 (bispecific antibody, human IgG1, kappa, also called PD-L1-IgG-TIGIT-scFv) heavy: not shown light: DVVMTQTPLSLSVTPGQPASISCKSSQSLANSYGNTYLSWYLHKPGQSPQLLIYGISNRFSGVPDRFSGSGSGTDFTLKISRVEAEDVGVYYCLQGTHQPPTFGQGTKLEIKRTVAAPSVFIFPPSDEQLKSGTASVVCLLNNFYPREAKVQWKVDNALQSGNSQESVTEQDSKDSTYSLSSTLTLSKADYEKHKVYACEVTHQGLSSPVTKSFNRGEC | 0.0751 | 9.11e-05 | 1.21e+06 | – | – | EC50 (nM), luciferase reporter, Jurkat-NFAT-PD-1-5B8 cells with CHO-K1-0S8-PD-L1-8D6 cells [1]: 2.09 nM; Kd [2]: 2.79 nM; koff [2]: 0.00057 s⁻¹; kon [2]: 204000 M⁻¹ s⁻¹ |
| 900693 (bispecific antibody, human IgG1, kappa, also called PD-L1-IgG-TIGIT-scFv) heavy: not shown light: DVVMTQTPLSLSVTPGQPASISCKSSQSLANSYGNTYLSWYLHKPGQSPQLLIYGISNRFSGVPDRFSGSGSGTDFTLKISRVEAEDVGVYYCLQGTHQPPTFGQGTKLEIKRTVAAPSVFIFPPSDEQLKSGTASVVCLLNNFYPREAKVQWKVDNALQSGNSQESVTEQDSKDSTYSLSSTLTLSKADYEKHKVYACEVTHQGLSSPVTKSFNRGEC | 0.0863 | 8.03e-05 | 930000 | – | – | EC50 (nM), luciferase reporter, Jurkat-NFAT-PD-1-5B8 cells with CHO-K1-0S8-PD-L1-8D6 cells [1]: 1.98 nM; Kd [2]: 2.27 nM; koff [2]: 0.000498 s⁻¹; kon [2]: 219000 M⁻¹ s⁻¹ |
| HB0031 (antibody, human IgG1, kappa, V domains shown, Humanized anti-TIGIT IgG1; also called 900464) VH: QVQLQESGPGLVKPSETLSLTCTVSGYSITSDYAWIWIRQPPGKGLEWIGYITSSGSTYYNPSLKSRVTFSVDTSKNQFSLKLSSVTAADTATYYCARLDFGNYGGAMDYWGQGTLVTVSS VL: DIQMTQSPSSLSASVGDRVTITCKASQHVSTALAWYQQKPGKAPKLLIYSASYLQSGVPSRFSGSRSGTDFTLTISSLQPEDFATYYCQQHYITPYTFGQGTKLEIKR | – | – | – | 0.0665 | 0.0581 | – |
| HB0032 (antibody, human IgG1, kappa, V domains shown, Humanized anti-TIGIT IgG1; also called 900466) VH: QVQLQESGPGLVKPSETLSLTCTVSGYSITSDYAWIWIRQPPGKKLEWIGYITSSGSTYYNPSLKSRVTFSVDTSKNQFSLKLSSVTAADTATYYCARLDFGNYGGAMDYWGQGTLVTVSS VL: DIQMTQSPSSLSASVGDRVTITCKASQHVSTAVNWYQQKPGKAPKLLIYSASYRQSGVPSRFSGSGSGTDFTLTISSLQPEDFATYYCQQHYITPYTFGQGTKLEIKR | – | – | – | 0.0919 | 0.0785 | – |
| HB0030 (antibody, human IgG1, kappa, V domains shown, Humanized anti-TIGIT IgG1; also called 900461; TIGIT parental monoclonal antibody) VH: QVQLQESGPGLVKPSETLSLTCTVSGYSITSDYAWIWIRQPPGKGLEWIGYITSSGSTYYNPSLKSRVTFSVDTSKNQFSLKLSSVTAADTATYYCARLDFGNYGGAMDYWGQGTLVTVSS VL: DIQMTQSPSSLSASVGDRVTITCRASQHVSTAVNWYQQKPGKAPKLLIYSASYLYSGVPSRFSGSRSGTDFTLTISSLQPEDFATYYCQQHYITPYTFGQGTKLEIKR | 0.0345 | 0.000167 | 4.82e+06 | 0.0573 | 0.0466 | EC50 (nM), IL2 secretion of Jurkat-TIGIT-22G8 cells with PHA and CD155 [6]: 5.82 nM; Kd [7]: 0.0583 nM; koff [7]: 0.000185 s⁻¹; kon [7]: 3.17e+06 M⁻¹ s⁻¹; Kd [8]: 0.0346 nM; koff [8]: 0.000175 s⁻¹; kon [8]: 5.07e+06 M⁻¹ s⁻¹ |
| HB0033 (antibody, human IgG1, kappa, V domains shown, Humanized anti-TIGIT IgG1; also called 900476) VH: QVQLQESGPGLVKPSETLSLTCTVSGYSITSDYAWIWIRQPPGNKLEWIGYITSSGSTYYNPSLKSRVTFSVDTSKNQFSLKLSSVTAADTATYYCARLDFGNYGGAMDYWGQGTLVTVSS VL: DIQMTQSPSSLSASVGDRVTITCKASQHVSTALAWYQQKPGKAPKLLIYSASYLQSGVPSRFSGSRSGTDFTLTISSLQPEDFATYYCQQHYITPYTFGQGTKLEIKR | – | – | – | 0.056 | 0.0514 | – |
| 900428 (antibody, human IgG1, kappa, L234A L235A, V domains shown, also called anti-TIGIT chimeric antibody 900428) VH: DVQLQESGPGLVKPSQSLSLTCTVTGYSITSDYAWNWIRQFPGNRLEWMGYISYSGAPRYNPSLKSRISITRDTSKNQFFLQLSFVTTEDTATYYCASLGTDYYAMDYWGQGTSVIVSS VL: DIVMTQSHKFMFTSVGDRVSITCKASQHVSNAVAWYQQKPGQSPKLLIHSASYRYTGVPDRFTGRGSGTDFTFTINSVQAEDLAVYYCQQYYSLPWTFGGGTKLEIKR | – | – | – | 0.069 | 0.075 | – |
| 900423 (antibody, human IgG1, kappa, L234A L235A, V domains shown, also called anti-TIGIT chimeric antibody 900423) VH: DVQLQESGPGLVKPSQSLSLTCTVTGYSITSDYAWNWIRQFPGNRLEWMGYISYSGAPRYNPSLKSRISITRDTSKNQFFLQLSFVTTEDTATYYCASLGTDYYAMDYWGQGTSVIVSS VL: DIVMTQSHKFMFTSVGDRVSITCKASQHVSNAVAWYQQKPGQSPKLLIHSASYRYTGVPDRFIGRGSGTDFTFTISSVQAEDLAVYYCQQYYSLPWTFGGGTKLEIKR | – | – | – | 0.065 | 0.06 | – |
| 900424 (antibody, human IgG1, kappa, L234A L235A, V domains shown, Chimeric form of B3/29F6; also called ADCC KO type human-mouse chimeric antibody (number 900424)) VH: DVQLQESGPGLVKPSQSLSLTCTVTGYSITSDYAWIWIRQFPGNKVEWMGYITSSGSTSYNPSLKSRISFTRDTSKNQFFLQLTSVTTEDTATYYCARLDFGNYGGAMDYWGQGTSVTVSS VL: DIVMTQSHKFMSTSIGDRVSITCKASQHVSTAVAWYQQKPGQSPKLLIYSASYRYTGVPDRFTGSRSGTDFTFTISSVQAEDLAVYYCQQHYITPYTFGGGTKLEIKR | – | – | – | 0.062 | 0.053 | – |
| B3/29F6 (antibody, V domains shown, Mouse hybridoma antibody) VH: DVQLQESGPGLVKPSQSLSLTCTVTGYSITSDYAWIWIRQFPGNKVEWMGYITSSGSTSYNPSLKSRISFTRDTSKNQFFLQLTSVTTEDTATYYCARLDFGNYGGAMDYWGQGTSVTVSS VL: DIVMTQSHKFMSTSIGDRVSITCKASQHVSTAVAWYQQKPGQSPKLLIYSASYRYTGVPDRFTGSRSGTDFTFTISSVQAEDLAVYYCQQHYITPYTFGGGTKLEIK | – | – | – | – | – | Kd [9]: 0.0139 nM |

From patent US20240010730A1 (SHANGHAI HUAOTA BIOPHARMACEUTICAL, published 2024)
